Here are results for two molecules from patent publication US20140087995A1 (published 2014).

In experiment [1] the target is T1, human calcitonin receptor (human, UniProt P30988 25-474).
T1 construct: whole, on cells; Membranes of BHK cells stably transfected with the human calcitonin receptor (Assay VII); also called hCTR; hCT
T1 sequence (looked up): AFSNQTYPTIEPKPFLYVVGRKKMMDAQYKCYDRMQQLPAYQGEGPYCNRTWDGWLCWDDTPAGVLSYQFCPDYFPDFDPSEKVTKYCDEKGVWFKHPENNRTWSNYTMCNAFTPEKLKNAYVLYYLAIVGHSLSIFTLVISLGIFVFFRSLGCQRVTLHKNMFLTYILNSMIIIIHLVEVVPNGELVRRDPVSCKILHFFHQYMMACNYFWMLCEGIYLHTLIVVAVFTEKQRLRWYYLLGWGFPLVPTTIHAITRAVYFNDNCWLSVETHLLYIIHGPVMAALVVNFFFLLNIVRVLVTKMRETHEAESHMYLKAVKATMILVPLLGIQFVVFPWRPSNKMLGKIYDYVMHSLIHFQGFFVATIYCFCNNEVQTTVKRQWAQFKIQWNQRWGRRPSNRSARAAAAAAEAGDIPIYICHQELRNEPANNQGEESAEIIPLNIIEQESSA
Kind of experiment: ratio of IC50 at hCTR over IC50 at hAmylin-R (SPA competition assays). A digest of the protocol: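 Competition binding by SPA uses membrane preparations (35 ng/μL final) in pH 7.4 Hepes buffer with 1 mM CaCl2 and 5 mM MgCl₂. Incubation lasts 120 min at 25° C, and IC₅₀ comes from one-site fitting.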

The target in experiment [2] is T1, human calcitonin receptor. Put plainly: SPA competition against 125I-calcitonin, membranes of BHK cells with human calcitonin receptor (Assay VII). The method in brief: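 BHK hCTR membranes 35 ng/μL + SPA beads 0.05 mg/well; buffer 50 mM Hepes pH 7.4, 1 mM CaCl2, 5 mM MgCl₂, 0.1% OA, 0.02% Tween20. 120 min, 25° C., shaking. Scintillation count; IC50 by one-site binding competition.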

Numbered stars: 1 amine (or outer) side, 2 acyl side, 3 side chain; on linkers, the order of the positions; unused ones are H or OH. Bridge positions count the residues as written; N and C are the ends. Side chains are listed from the residue outwards. Ends that are not written are not given here. * marks the point of attachment. C20 diacid = O=C(O)CCCCCCCCCCCCCCCCCCC(=O)*; γGlu = O=C(O)[C@H](CCC(=O)[*:2])N[*:1]

B1: N^ε1-[(4S)-4-carboxy-4-[[(4S)-4-carboxy-4-(19-carboxynonadecanoylamino)butanoyl]amino]butanoyl]-[Glu14,Arg17,Pro21,Pro27,His34,Glu35]-h-amylin (peptide)
peptide: K([γGlu-γGlu-C20 diacid])CNTATCATQRLAEFLRHSSPNFGAIPSSTNVGHETY-NH2
modifications: disulfide 2-7; N-terminus assumed
SMILES: CC[C@H](C)[C@H](NC(=O)[C@H](C)NC(=O)CNC(=O)[C@H](Cc1ccccc1)NC(=O)[C@H](CC(N)=O)NC(=O)[C@@H]1CCCN1C(=O)[C@H](CO)NC(=O)[C@H](CO)NC(=O)[C@H](Cc1c[nH]cn1)NC(=O)[C@H](CCCNC(=N)N)NC(=O)[C@H](CC(C)C)NC(=O)[C@H](Cc1ccccc1)NC(=O)[C@H](CCC(=O)O)NC(=O)[C@H](C)NC(=O)[C@H](CC(C)C)NC(=O)[C@H](CCCNC(=N)N)NC(=O)[C@H](CCC(N)=O)NC(=O)[C@@H](NC(=O)[C@H](C)NC(=O)[C@@H]1CSSC[C@H](NC(=O)[C@@H](N)CCCCNC(=O)CC[C@H](NC(=O)CC[C@H](NC(=O)CCCCCCCCCCCCCCCCCCC(=O)O)C(=O)O)C(=O)O)C(=O)N[C@@H](CC(N)=O)C(=O)N[C@@H]([C@@H](C)O)C(=O)N[C@@H](C)C(=O)N[C@@H]([C@@H](C)O)C(=O)N1)[C@@H](C)O)C(=O)N1CCC[C@H]1C(=O)N[C@@H](CO)C(=O)N[C@@H](CO)C(=O)N[C@H](C(=O)N[C@@H](CC(N)=O)C(=O)N[C@H](C(=O)NCC(=O)N[C@@H](Cc1c[nH]cn1)C(=O)N[C@@H](CCC(=O)O)C(=O)N[C@H](C(=O)N[C@@H](Cc1ccc(O)cc1)C(N)=O)[C@@H](C)O)C(C)C)[C@@H](C)O
Usually IC50 stands for the concentration that inhibits the measured activity by half. In the case of B1, the “Ratio hCT/hAmylin binding” value in experiment [1] was 29.1. The concentration for half-maximal inhibition (IC50) in experiment [2] is 15.2 nM.

B2: N^ε1-[(4S)-4-carboxy-4-[[(4S)-4-carboxy-4-(19-carboxynonadecanoylamino)butanoyl]amino]butanoyl]-[Glu14,Arg17,Pro21,Pro27,Pro34,Arg35]-h-amylin (peptide)
peptide: K([γGlu-γGlu-C20 diacid])CNTATCATQRLAEFLRHSSPNFGAIPSSTNVGPRTY-NH2
modifications: disulfide 2-7; N-terminus assumed
SMILES: CC[C@H](C)[C@H](NC(=O)[C@H](C)NC(=O)CNC(=O)[C@H](Cc1ccccc1)NC(=O)[C@H](CC(N)=O)NC(=O)[C@@H]1CCCN1C(=O)[C@H](CO)NC(=O)[C@H](CO)NC(=O)[C@H](Cc1c[nH]cn1)NC(=O)[C@H](CCCNC(=N)N)NC(=O)[C@H](CC(C)C)NC(=O)[C@H](Cc1ccccc1)NC(=O)[C@H](CCC(=O)O)NC(=O)[C@H](C)NC(=O)[C@H](CC(C)C)NC(=O)[C@H](CCCNC(=N)N)NC(=O)[C@H](CCC(N)=O)NC(=O)[C@@H](NC(=O)[C@H](C)NC(=O)[C@@H]1CSSC[C@H](NC(=O)[C@@H](N)CCCCNC(=O)CC[C@H](NC(=O)CC[C@H](NC(=O)CCCCCCCCCCCCCCCCCCC(=O)O)C(=O)O)C(=O)O)C(=O)N[C@@H](CC(N)=O)C(=O)N[C@@H]([C@@H](C)O)C(=O)N[C@@H](C)C(=O)N[C@@H]([C@@H](C)O)C(=O)N1)[C@@H](C)O)C(=O)N1CCC[C@H]1C(=O)N[C@@H](CO)C(=O)N[C@@H](CO)C(=O)N[C@H](C(=O)N[C@@H](CC(N)=O)C(=O)N[C@H](C(=O)NCC(=O)N1CCC[C@H]1C(=O)N[C@@H](CCCNC(=N)N)C(=O)N[C@H](C(=O)N[C@@H](Cc1ccc(O)cc1)C(N)=O)[C@@H](C)O)C(C)C)[C@@H](C)O
notes: also called compound 110
Take B2: in experiment [1], the “Ratio hCT/hAmylin binding” value worked out at 53.6. Also, in experiment [2], the IC50 is 17.5 nM.
